{"source": "patent US20110318347A1", "about": "(Ablynx, published 2011)", "key": {"CCR5": {"biological_target": "CCR5 (UniProt P51681 1-352, limits assumed)", "sequence (P51681 whole entry)": "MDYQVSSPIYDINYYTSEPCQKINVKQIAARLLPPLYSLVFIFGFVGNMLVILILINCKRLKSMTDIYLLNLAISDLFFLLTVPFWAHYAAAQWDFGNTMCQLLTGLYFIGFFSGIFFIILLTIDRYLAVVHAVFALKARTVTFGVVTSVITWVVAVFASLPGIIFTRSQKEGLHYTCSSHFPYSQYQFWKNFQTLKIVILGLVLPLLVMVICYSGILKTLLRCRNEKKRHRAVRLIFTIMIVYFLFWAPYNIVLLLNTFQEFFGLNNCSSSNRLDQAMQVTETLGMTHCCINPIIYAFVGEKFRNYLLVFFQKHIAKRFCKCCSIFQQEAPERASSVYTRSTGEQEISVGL", "test": "cell-based or functional assay"}, "CXCR3": {"biological_target": "T1, CXCR3 (UniProt P49682 1-368, limits assumed)", "T1 construct": "whole, on cells", "T1 sequence (looked up)": "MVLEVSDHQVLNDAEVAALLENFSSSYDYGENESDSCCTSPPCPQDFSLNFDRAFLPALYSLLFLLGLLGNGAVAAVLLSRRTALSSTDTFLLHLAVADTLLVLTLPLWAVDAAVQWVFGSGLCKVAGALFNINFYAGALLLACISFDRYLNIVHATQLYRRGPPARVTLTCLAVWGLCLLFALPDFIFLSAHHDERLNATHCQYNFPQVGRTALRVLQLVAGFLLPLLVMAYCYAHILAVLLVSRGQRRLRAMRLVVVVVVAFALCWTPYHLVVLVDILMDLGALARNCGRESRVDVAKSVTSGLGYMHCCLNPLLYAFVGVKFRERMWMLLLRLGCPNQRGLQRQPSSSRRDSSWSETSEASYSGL", "test": "total binding of [125I]-238D2 to membranes of HEK293T cells expressing CXCR4 or CXCR3"}, "human CD4 on cells": {"biological_target": "human CD4 on cells (human, UniProt P01730 26-458)", "test": "cell-based or functional assay"}}}
{"binder": "Nanobody 238D2 (VHH, In some assays the Nanobody was 125I-labelled (Iodo-gen, on tyrosine); the letters do not carry this., Monovalent llama VHH against human CXCR4, purified; tags not described; also called 238C1) VHH: EVQLVESGGGLVQTGGSLRLSCAASGFTFSSYAMSWVRQAPGKGLEWVSGIKSSGDSTRYAGSVKGRFTISRDNAKNMLYLQMYSLKPEDTAVYYCAKSRVSRTGLYTYDNRGQGTQVTVSS", "values": [{"measurement": "IC50, HIV-1 BaL, PBMC donor 1", "setting": "CCR5", "value": "> 1", "unit": "µg/mL"}, {"measurement": "IC50, HIV-1 BaL, PBMC donor 2", "setting": "CCR5", "value": "> 1", "unit": "µg/mL"}, {"measurement": "nM IC50, HIV-1 BAL, PBMC donor 1", "setting": "CCR5", "value": "> 67", "unit": "nM"}, {"measurement": "nM IC50, HIV-1 BAL, PBMC donor 2", "setting": "CCR5", "value": "> 67", "unit": "nM"}, {"measurement": "binding result", "setting": "CXCR3", "value": "no binding (tested: 3 nM radioligand)"}]}
{"binder": "Nanobody 03F11 (VHH) VHH: EVQLVESGGGSVQPGGSLTLSCGTSGRTFNVMGWFRQAPGKEREFVAAVRWSSTGIYYTQYADSVKSRFTISRDNAKNTVYLEMNSLKPEDTAVYYCAADTYNSNPARWDGYDFRGQGTQVTVSS", "values": [{"measurement": "anti-HIV activity, NL4.3 on MT4 cells, MTS method, IC50", "setting": "human CD4 on cells", "value": 85, "unit": "nM"}, {"measurement": "anti-HIV activity, NL4.3 on MT4 cells, p24 levels, IC50", "setting": "human CD4 on cells", "value": 15, "unit": "nM"}]}
